Laboratory results published in the nanobody polyreactivity screen of Harvey et al. (2022).

Assay: yeast display, Sf9 membrane polyspecificity reagent, FACS + sequencing; frameworks hold sequencing errors
Method in brief: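 After 36–48 hours of galactose induction, yeast (Saccharomyces cerevisiae BJ5465) displaying a synthetic nanobody library were stained at 4 °C for 1 hour with 10% biotinylated, detergent-solubilized Sf9 membrane reagent. Streptavidin microbeads enriched the stained cells before FACS sorting into low and high (top ~1%) gates on anti-HA and streptavidin fluorescence. Each clone's polyreactivity label reflects its gate of origin.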

Sequence | polyreactivity (PSR sort gate)
QVQLVDSGGGLVQAGGSLRLSCAASGLIFGYYDMGWYRQAPGKERELVAAITTGDSTYYADSVKGRFTISRDNAKNTVYLQMTCLKPEDSAVYYCSAYAFWYYESDYWGKGTQVTVSS | low polyreactivity
QVQLVESGGGLVKAGASLRLSCAASGRTFRHNARGWYRQAPGKERELVAAITIGTNTYYADSVKGRFTISRDNAKNTVYLQMNSLKPEDTEVYYCAAVKDRYAYVPPRFDYWGQGSQVTVSS | low polyreactivity
QVQLVESRGRLVQAGGSLRLSCAASGFSFVINDMGRYRQAPGKERELVADITSGGDTYYADSVKGRFTISRDNAKNTVYLQKNSLKPEDTAVYYCAADIYRDLIYLLYGYWGQGTQVTVSS | low polyreactivity
QVQLVESGGGLVQAGGSLRLSCAASGLTFGRYAMGWYIQATGKERQLVASISQRGGSTYYADSVKGRFTISRDNAKNTVYLQMNSLKPEDTAVYYCNARVRDIYRYSMDSWGQGTQVTVSS | low polyreactivity
QVQLVESGGGLVQAGGSLRLSCAASGSIFTFYAMGWYRQAPGKERELVARITNVGNTNYADSVKGRFTISRDNAKNTVYLQMNSLKPEDTAVYYCAARWYWGWTRGDYWGQGTQVTVSS | high polyreactivity
QVQLVESGGGLVQAGGSLRLSCAACGRIFGGNTMGWYRQAPGKQRELVAAITVRGGSTYYADSVKGRFTISRDNAKNTVYLQMNSLKPEDTAVYYCAARRRIFPPRFGYWGQGTQVTVSS | high polyreactivity
QVQLVESGGGLVQAGGSLRLSCAASGSIFASNAMGWYRQAPGKERELVAAISTSGGSTYYADSVKGRFTISRDNAKNTVYLQMNSLKPEDTAVYYCAKLLARGFRIWQDYDYWGQGTQVTVSS | low polyreactivity
QVQLVESGGGLVQAGGSLRLSCAASGRIFGINALGWYRQAPGKERELVAAISSADSTYADSVKGRFTISRDNAKNTVFLQMYSLNPEDTAVYNCRNDYWGQGTQVTVSS | low polyreactivity
QVQHVESGGGLLQAGGSLRLSCAASGRIFWINAMGWYIQAPGKERELVATISSGSTSYADSVKGRFTITRDNAKNTVYLQMNSLKPEDTAVYYCAVSLRYTRSGAYDYWGQGTQVTVSS | low polyreactivity
QVQLVVSGGGLVQAGGSLRLSCAASGRTFPRYAMGWYRQAPGKERELVASISRRGGSTYYADSVKGRFTISRDNAKNTVYLQMNSLKPEDTAVYYCNAQGYPYKQSTGDFWGQGTQVTVSS | high polyreactivity
QVQLVESGGGLVQAGGSLRLSCAASGSILDIYAMGWYRQAPGKERELVASISWGGGSTYYADSVKGRFTISRDNAKNTVYLQMNSLKQEDTAVYYCNAVYDLYHYWKFYYWGQGTQVTVSS | low polyreactivity
QVQLVESGGGLVQAGCSLRLSCAASGGTFYVNAMGCYRQAPGKDRELVAGIRESGASTYYADSVKGRFTISLDNAKNTVYLQMNSLKPEDTAVYYCAVDGPYPAASQSEVGYDYWGQGTQVTVSS | low polyreactivity
QVQLVESGGGLVQPGGSLRLSCAASGRTYRWYAMGWYRQAPGKERELVASITSGVSTYYADSVTGRCTISRDNAKNTVNLQMNSLKPEDTAVYYCAAGYRFTTYLVYNYWGQGTHVTVSS | high polyreactivity
QVQLVESGGGLVQAGGSLRLSCAASGFTFNIKTKGSDRQAPGKDRELVAAITSGGNSSYADSVKGRLTISRDNAKNTVYLQMNRVKPEDTAVYYCATEDFRTDTGMYYWGQGTQVTVSS | low polyreactivity
QVQLVESGGGLVQAGGSLRLSCAASGFTFRYYAMGWYRQAPGKERELVAAISWRGGRTYYADSVKGRFTISRDNAKNTVYIQMNSLKPEDTAVYYCAALRERQTRGNYWGQGTQVTVSS | high polyreactivity
QAQSVESGGGLVQAGGSLRLICAASGITFGNYAMGWYRQAPGKERALVASISWNVGSTYYADSVKGRFTISRDNAKNTVYLQMNSLKPEDTSVYYCARGYDRPRVATFHRFDYWGQGTQVTVSS | low polyreactivity
QVQLVESGGGLVHAGGSLRLSCAASGFNFIVYAMGWYRQAPGKERELVASITYSGGGTYYADSVKGRFTISRDNAKNTVYLQMNSLIPEDTAVYYCNADVSWSYSVYREYGMDYWGQGTQVTVSS | low polyreactivity
